Data as given in article doi:10.1101/2022.12.01.518643 (bioRxiv, 2022).

Tests used:
[1] = biological target: soluble DP4 (HLA-DPA1*01:03/DPB1*04:01) (human); assay: fluorescence polarisation
[2] = biological target: soluble DP4 (HLA-DPA1*01:03/DPB1*04:01) (human); assay: fluorescence polarisation; remark: listed apart in the source

Molecule | IC50 [1] | fold change of binding against the OC43 peptide P4 [2]
OC43 hemagglutinin esterase peptide 259–273 (P1) | < 1 µM | –
RSFIEDLLFNKVTLA (modifications not checked) [SARS-CoV-2 homolog of the OC43 peptide P4] | – | 10 fold
